Reference: patent US20260167699A1 (Chugai, published 2026)

T1: FcγRIIa(R) extracellular domain, C-terminal His tag (human, UniProt P12318 34-217)
T1 construct: extracellular domain; also called 2aR
T1 sequence: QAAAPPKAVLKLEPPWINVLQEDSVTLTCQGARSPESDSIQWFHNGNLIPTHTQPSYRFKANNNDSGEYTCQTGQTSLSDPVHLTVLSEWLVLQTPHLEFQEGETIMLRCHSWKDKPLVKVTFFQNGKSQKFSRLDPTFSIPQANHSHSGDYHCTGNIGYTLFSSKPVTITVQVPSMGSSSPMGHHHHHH

T2: FcγRIIa(H) extracellular domain, C-terminal His tag (human, UniProt P12318 34-217)
T2 construct: extracellular domain; also called 2aH
T2 sequence: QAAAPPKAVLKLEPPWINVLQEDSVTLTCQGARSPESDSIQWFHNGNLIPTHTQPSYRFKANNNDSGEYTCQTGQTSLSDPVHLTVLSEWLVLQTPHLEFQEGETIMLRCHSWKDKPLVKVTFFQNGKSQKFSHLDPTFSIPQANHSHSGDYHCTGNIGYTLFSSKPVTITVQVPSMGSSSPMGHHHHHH

T3: FcγRIIb extracellular domain, C-terminal His tag (human, UniProt P31994 43-217)
T3 construct: extracellular domain; also called 2b
T3 sequence: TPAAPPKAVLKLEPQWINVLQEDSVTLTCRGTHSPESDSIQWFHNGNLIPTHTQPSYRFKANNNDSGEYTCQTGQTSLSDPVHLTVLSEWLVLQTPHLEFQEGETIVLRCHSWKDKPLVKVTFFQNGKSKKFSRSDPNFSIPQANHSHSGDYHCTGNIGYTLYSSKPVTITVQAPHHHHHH

B1: GpH7-A5/GpH7-B3 variant S298_19Q/GpL16-k0 (antibody, human IgG1, kappa)
heavy 1: not shown
heavy 2: not shown
light: DIVMTQSPLSLPVTPGEPASISCQASESLVHSNRNTYLHWYLQKPGQSPQLLIYKVSNRFSGVPDRFSGSGSGTDFTLKISRVEAEDVGVYYCSQNTHVPPTFGQGTKVEIERTVAAPSVFIFPPSDEQLKSGTASVVCLLNNFYPREAKVQWKVDNALQSGNSQESVTEQDSKDSTYSLSSTLTLSKADYEKHKVYACEVTHQGLSSPVTKSFNRGEC
notes: heterodimerized IgG1, one H chain mutated; also called He Ab; copies: 1 + 1 + 2
B2: GpH7-A5/GpH7-B3 variant S324_10E/GpL16-k0 (antibody, human IgG1, kappa)
heavy 1: not shown
heavy 2: not shown
light: DIVMTQSPLSLPVTPGEPASISCQASESLVHSNRNTYLHWYLQKPGQSPQLLIYKVSNRFSGVPDRFSGSGSGTDFTLKISRVEAEDVGVYYCSQNTHVPPTFGQGTKVEIERTVAAPSVFIFPPSDEQLKSGTASVVCLLNNFYPREAKVQWKVDNALQSGNSQESVTEQDSKDSTYSLSSTLTLSKADYEKHKVYACEVTHQGLSSPVTKSFNRGEC
notes: as for B1
B3: GpH7-A5/GpH7-B3 variant S324_09D/GpL16-k0 (antibody, human IgG1, kappa)
heavy 1: not shown
heavy 2: not shown
light: DIVMTQSPLSLPVTPGEPASISCQASESLVHSNRNTYLHWYLQKPGQSPQLLIYKVSNRFSGVPDRFSGSGSGTDFTLKISRVEAEDVGVYYCSQNTHVPPTFGQGTKVEIERTVAAPSVFIFPPSDEQLKSGTASVVCLLNNFYPREAKVQWKVDNALQSGNSQESVTEQDSKDSTYSLSSTLTLSKADYEKHKVYACEVTHQGLSSPVTKSFNRGEC
notes: as for B1
B4: GpH7-A5/GpH7-B3 variant Y296_01G/GpL16-k0 (antibody, human IgG1, kappa)
heavy 1: not shown
heavy 2: not shown
light: DIVMTQSPLSLPVTPGEPASISCQASESLVHSNRNTYLHWYLQKPGQSPQLLIYKVSNRFSGVPDRFSGSGSGTDFTLKISRVEAEDVGVYYCSQNTHVPPTFGQGTKVEIERTVAAPSVFIFPPSDEQLKSGTASVVCLLNNFYPREAKVQWKVDNALQSGNSQESVTEQDSKDSTYSLSSTLTLSKADYEKHKVYACEVTHQGLSSPVTKSFNRGEC
notes: as for B1
B5: GpH7-A5/GpH7-B3 variant S324_15Y/GpL16-k0 (antibody, human IgG1, kappa)
heavy 1: not shown
heavy 2: not shown
light: DIVMTQSPLSLPVTPGEPASISCQASESLVHSNRNTYLHWYLQKPGQSPQLLIYKVSNRFSGVPDRFSGSGSGTDFTLKISRVEAEDVGVYYCSQNTHVPPTFGQGTKVEIERTVAAPSVFIFPPSDEQLKSGTASVVCLLNNFYPREAKVQWKVDNALQSGNSQESVTEQDSKDSTYSLSSTLTLSKADYEKHKVYACEVTHQGLSSPVTKSFNRGEC
notes: as for B1
B6: GpH7-A5/GpH7-B3 variant S324_18N/GpL16-k0 (antibody, human IgG1, kappa)
heavy 1: not shown
heavy 2: not shown
light: DIVMTQSPLSLPVTPGEPASISCQASESLVHSNRNTYLHWYLQKPGQSPQLLIYKVSNRFSGVPDRFSGSGSGTDFTLKISRVEAEDVGVYYCSQNTHVPPTFGQGTKVEIERTVAAPSVFIFPPSDEQLKSGTASVVCLLNNFYPREAKVQWKVDNALQSGNSQESVTEQDSKDSTYSLSSTLTLSKADYEKHKVYACEVTHQGLSSPVTKSFNRGEC
notes: as for B1
B7: GpH7-A5/GpH7-B3 variant S324_12R/GpL16-k0 (antibody, human IgG1, kappa)
heavy 1: not shown
heavy 2: not shown
light: DIVMTQSPLSLPVTPGEPASISCQASESLVHSNRNTYLHWYLQKPGQSPQLLIYKVSNRFSGVPDRFSGSGSGTDFTLKISRVEAEDVGVYYCSQNTHVPPTFGQGTKVEIERTVAAPSVFIFPPSDEQLKSGTASVVCLLNNFYPREAKVQWKVDNALQSGNSQESVTEQDSKDSTYSLSSTLTLSKADYEKHKVYACEVTHQGLSSPVTKSFNRGEC
notes: as for B1
B8: GpH7-A5/GpH7-B3 variant S324_03V/GpL16-k0 (antibody, human IgG1, kappa)
heavy 1: not shown
heavy 2: not shown
light: DIVMTQSPLSLPVTPGEPASISCQASESLVHSNRNTYLHWYLQKPGQSPQLLIYKVSNRFSGVPDRFSGSGSGTDFTLKISRVEAEDVGVYYCSQNTHVPPTFGQGTKVEIERTVAAPSVFIFPPSDEQLKSGTASVVCLLNNFYPREAKVQWKVDNALQSGNSQESVTEQDSKDSTYSLSSTLTLSKADYEKHKVYACEVTHQGLSSPVTKSFNRGEC
notes: as for B1
B9: GpH7-A5/GpH7-B3 variant S324_19Q/GpL16-k0 (antibody, human IgG1, kappa)
heavy 1: not shown
heavy 2: not shown
light: DIVMTQSPLSLPVTPGEPASISCQASESLVHSNRNTYLHWYLQKPGQSPQLLIYKVSNRFSGVPDRFSGSGSGTDFTLKISRVEAEDVGVYYCSQNTHVPPTFGQGTKVEIERTVAAPSVFIFPPSDEQLKSGTASVVCLLNNFYPREAKVQWKVDNALQSGNSQESVTEQDSKDSTYSLSSTLTLSKADYEKHKVYACEVTHQGLSSPVTKSFNRGEC
notes: as for B1
B10: GpH7-A5/GpH7-B3 variant S324_04F/GpL16-k0 (antibody, human IgG1, kappa)
heavy 1: not shown
heavy 2: not shown
light: DIVMTQSPLSLPVTPGEPASISCQASESLVHSNRNTYLHWYLQKPGQSPQLLIYKVSNRFSGVPDRFSGSGSGTDFTLKISRVEAEDVGVYYCSQNTHVPPTFGQGTKVEIERTVAAPSVFIFPPSDEQLKSGTASVVCLLNNFYPREAKVQWKVDNALQSGNSQESVTEQDSKDSTYSLSSTLTLSKADYEKHKVYACEVTHQGLSSPVTKSFNRGEC
notes: as for B1
B11: GpH7-A5/GpH7-B3 variant S324_11K/GpL16-k0 (antibody, human IgG1, kappa)
heavy 1: not shown
heavy 2: not shown
light: DIVMTQSPLSLPVTPGEPASISCQASESLVHSNRNTYLHWYLQKPGQSPQLLIYKVSNRFSGVPDRFSGSGSGTDFTLKISRVEAEDVGVYYCSQNTHVPPTFGQGTKVEIERTVAAPSVFIFPPSDEQLKSGTASVVCLLNNFYPREAKVQWKVDNALQSGNSQESVTEQDSKDSTYSLSSTLTLSKADYEKHKVYACEVTHQGLSSPVTKSFNRGEC
notes: as for B1
B12: GpH7-A5/GpH7-B3 variant S324_07I/GpL16-k0 (antibody, human IgG1, kappa)
heavy 1: not shown
heavy 2: not shown
light: DIVMTQSPLSLPVTPGEPASISCQASESLVHSNRNTYLHWYLQKPGQSPQLLIYKVSNRFSGVPDRFSGSGSGTDFTLKISRVEAEDVGVYYCSQNTHVPPTFGQGTKVEIERTVAAPSVFIFPPSDEQLKSGTASVVCLLNNFYPREAKVQWKVDNALQSGNSQESVTEQDSKDSTYSLSSTLTLSKADYEKHKVYACEVTHQGLSSPVTKSFNRGEC
notes: as for B1
B13: GpH7-A5/GpH7-B3 variant S324_14T/GpL16-k0 (antibody, human IgG1, kappa)
heavy 1: not shown
heavy 2: not shown
light: DIVMTQSPLSLPVTPGEPASISCQASESLVHSNRNTYLHWYLQKPGQSPQLLIYKVSNRFSGVPDRFSGSGSGTDFTLKISRVEAEDVGVYYCSQNTHVPPTFGQGTKVEIERTVAAPSVFIFPPSDEQLKSGTASVVCLLNNFYPREAKVQWKVDNALQSGNSQESVTEQDSKDSTYSLSSTLTLSKADYEKHKVYACEVTHQGLSSPVTKSFNRGEC
notes: as for B1
B14: GpH7-A5/GpH7-B3 variant S324_08L/GpL16-k0 (antibody, human IgG1, kappa)
heavy 1: not shown
heavy 2: not shown
light: DIVMTQSPLSLPVTPGEPASISCQASESLVHSNRNTYLHWYLQKPGQSPQLLIYKVSNRFSGVPDRFSGSGSGTDFTLKISRVEAEDVGVYYCSQNTHVPPTFGQGTKVEIERTVAAPSVFIFPPSDEQLKSGTASVVCLLNNFYPREAKVQWKVDNALQSGNSQESVTEQDSKDSTYSLSSTLTLSKADYEKHKVYACEVTHQGLSSPVTKSFNRGEC
notes: as for B1
B15: GpH7-A5/GpH7-B3 variant Y296_02A/GpL16-k0 (antibody, human IgG1, kappa)
heavy 1: not shown
heavy 2: not shown
light: DIVMTQSPLSLPVTPGEPASISCQASESLVHSNRNTYLHWYLQKPGQSPQLLIYKVSNRFSGVPDRFSGSGSGTDFTLKISRVEAEDVGVYYCSQNTHVPPTFGQGTKVEIERTVAAPSVFIFPPSDEQLKSGTASVVCLLNNFYPREAKVQWKVDNALQSGNSQESVTEQDSKDSTYSLSSTLTLSKADYEKHKVYACEVTHQGLSSPVTKSFNRGEC
notes: as for B1

What was measured:
Assay in all cases: SPR; He Ab vs HeCon Ab (GpH7-A5/GpH7-B3/GpL16-k0)=100;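 further: surface plasmon resonance at 25 °C with the test antibody captured on a sensor chip via antigenic peptide, protein L or protein A/G and FcγR flowed over as analyte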
[1] = biological target: T4, FcγRIa extracellular domain, C-terminal His tag (human, UniProt P12314 16-292)
T4 construct: extracellular domain; also called 1a
Experimental: (§1) The antibody of interest was analyzed for its interaction with FcγR using a BiaCore™ T100, BiaCore™ A100, or BiaCore™ 4000 surface plasmon resonance system (GE Healthcare Japan Corp.). The running buffer used was HBS-EP+ (GE Healthcare Japan Corp.). The assay temperature was set to 25° C. The sensor chips used were: a chip prepared by immobilizing antigenic peptides onto Series S Sensor Chip CM5 (GE Healthcare Japan Corp.) by the amine coupling method; a chip prepared by immobilizing antigenic peptides biotinylated in advance onto Series S Sensor Chip SA (certified) (GE Healthcare Japan Corp.) through their interaction; a chip prepared by immobilizing protein L (ACTIGEN, BioVision, Inc.) onto Series S Sensor Chip CM5 (GE Healthcare Japan Corp.); and a chip prepared by immobilizing protein A/G (Thermo Fisher Scientific K.K.) onto Series S Sensor Chip CM5 (GE Healthcare Japan Corp.). The antibody of interest was captured onto any of these chips and allowed to interact with FcγR diluted with a running buffer. The antibody captured on the chip was washed off through the reaction of 10 mM glycine-HCl (pH 1.5) to regenerate the chip, which was repetitively used.

[2] = biological target: T1, FcγRIIa(R) extracellular domain, …
Experimental: as §1

[3] = biological target: T2, FcγRIIa(H) extracellular domain, …
Experimental: as §1

[4] = biological target: T5, FcγRIIIa extracellular domain, C-terminal His tag (human, UniProt P08637 17-208)
T5 construct: extracellular domain; also called 3a
Experimental: as §1

[5] = biological target: T3, FcγRIIb extracellular domain, …
Experimental: as §1

T5 sequence (P08637 other isoform, or with tags, fused parts or gaps): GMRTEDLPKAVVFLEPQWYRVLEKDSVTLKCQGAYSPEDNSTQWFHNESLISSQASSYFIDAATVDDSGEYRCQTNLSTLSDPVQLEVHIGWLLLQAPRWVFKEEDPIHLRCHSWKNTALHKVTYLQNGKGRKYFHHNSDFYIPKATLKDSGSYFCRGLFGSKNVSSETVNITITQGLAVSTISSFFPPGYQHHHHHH
T4 sequence (P12314 other isoform, or with tags, fused parts or gaps): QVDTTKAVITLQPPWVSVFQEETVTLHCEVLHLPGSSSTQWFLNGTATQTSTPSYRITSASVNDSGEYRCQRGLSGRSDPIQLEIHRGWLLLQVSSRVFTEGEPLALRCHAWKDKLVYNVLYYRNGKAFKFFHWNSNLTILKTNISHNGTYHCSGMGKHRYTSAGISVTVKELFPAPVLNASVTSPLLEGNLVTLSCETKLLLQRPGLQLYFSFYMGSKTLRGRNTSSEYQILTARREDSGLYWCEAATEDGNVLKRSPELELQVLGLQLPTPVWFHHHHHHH

| Binder | He/Con 1a [1] [%] | He/Con 2aR [2] [%] | He/Con 2aH [3] [%] | He/Con 3a [4] [%] | He/Con 2b [5] [%] |
| --- | --- | --- | --- | --- | --- |
| B1 | 106 | 90.9 | 88.9 | 70.6 | 74.3 |
| B2 | 98.9 | 99 | 114 | 108 | 101 |
| B3 | 97.7 | 102 | 117 | 110 | 112 |
| B4 | 99.4 | 91.6 | 91.6 | 51.3 | 80.4 |
| B5 | 107 | 107 | 114 | 110 | 115 |
| B6 | 109 | 101 | 109 | 103 | 106 |
| B7 | 95.9 | 84 | 107 | 98.1 | 82.4 |
| B8 | 97.7 | 113 | 108 | 101 | 128 |
| B9 | 106 | 86.8 | 106 | 96.2 | 87.2 |
| B10 | 103 | 99.6 | 106 | 99.3 | 99.9 |
| B11 | 96.3 | 91 | 102 | 90.2 | 89.6 |
| B12 | 96.2 | 109 | 107 | 101 | 125 |
| B13 | 114 | 93.9 | 107 | 112 | 115 |
| B14 | 97.3 | 110 | 106 | 95.5 | 117 |
| B15 | 99.8 | 93 | 89.1 | 66.3 | 83.1 |
